Test results taken from paper PMC2176068, “Hepatoma derived growth factor binds DNA through the N-terminal PWWP domain”.

Legend:
[1] = biological target: T1, GST-HDGF (Homo sapiens, UniProt P51858 1-240); assay: EMSA; 10 mM Tris pH 7.5, 50 mM KCl, 1 mM DTT, 5% glycerol, 0.05% NP-40, 0.1 ug sheared salmon sperm DNA; 1 ug protein, 0.25 pmol probe, 30 min on ice; 5% PAGE in 0.1x TBE; conditions: protein: recombinant, tags: N-terminal GST (pGEX-4T2), blunt
[2] = biological target: GST-HDGF Δ1-146 (Homo sapiens, UniProt P51858 1-146); assay: as above; conditions: protein: recombinant; tags: N-terminal GST; label: 5' biotin (sense strand); blunt
[3] = biological target: TNT-HDGF (untagged) (UniProt P51858 1-240); assay: as above; conditions: protein: ivt; tags: none; label: 5' biotin (sense strand); blunt
[4] = biological target: GST-HDGF Δ70-237 (Homo sapiens, UniProt P51858 70-237); assay: as above; conditions: protein: recombinant; tags: N-terminal GST; label: 5' biotin (sense strand); blunt
[5] = biological target: GST-HDGF Δ1-110 (Homo sapiens, UniProt P51858 1-110); assay: as above; conditions: protein: recombinant; tags: N-terminal GST; label: 5' biotin (sense strand); blunt
[6] = biological target: GST-HDGF Δ1-140 (Homo sapiens, UniProt P51858 1-140); assay: as above; conditions: protein: recombinant; tags: N-terminal GST; label: 5' biotin (sense strand); blunt
[7] = biological target: His-HDGF-GFP (UniProt P51858 1-240); assay: as above; conditions: protein: recombinant; tags: His, GFP; label: 5' biotin (sense strand); blunt
[8] = biological target: T1, GST-HDGF; assay: competition; 100x unlabeled, labeled 80 bp probe; 10 mM Tris pH 7.5, 50 mM KCl, 1 mM DTT, 5% glycerol, 0.05% NP-40, 0.1 ug sheared salmon sperm DNA; 1 ug protein, 0.25 pmol probe, 30 min on ice; 5% PAGE in 0.1x TBE; conditions: protein: recombinant, tags: N-terminal GST (pGEX-4T2)

T1 sequence (P51858 whole entry): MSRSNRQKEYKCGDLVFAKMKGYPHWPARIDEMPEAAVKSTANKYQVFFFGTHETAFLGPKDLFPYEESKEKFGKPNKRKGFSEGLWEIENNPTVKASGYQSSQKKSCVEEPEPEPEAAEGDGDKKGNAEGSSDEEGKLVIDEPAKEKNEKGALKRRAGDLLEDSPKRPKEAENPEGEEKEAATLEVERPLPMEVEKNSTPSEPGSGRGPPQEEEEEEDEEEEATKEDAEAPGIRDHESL
Sequence of GST-HDGF Δ1-110 (P51858 1-110, stated change not applied): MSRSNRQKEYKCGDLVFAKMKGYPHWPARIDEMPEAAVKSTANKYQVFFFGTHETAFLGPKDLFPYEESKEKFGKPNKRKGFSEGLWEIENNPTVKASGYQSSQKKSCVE
Sequence of GST-HDGF Δ1-146 (P51858 1-146, stated change not applied): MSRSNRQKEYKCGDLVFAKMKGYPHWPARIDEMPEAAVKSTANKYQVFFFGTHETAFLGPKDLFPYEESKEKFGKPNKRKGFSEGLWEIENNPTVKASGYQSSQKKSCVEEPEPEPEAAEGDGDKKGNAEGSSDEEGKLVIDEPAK
Sequence of GST-HDGF Δ1-140 (P51858 1-140, stated change not applied): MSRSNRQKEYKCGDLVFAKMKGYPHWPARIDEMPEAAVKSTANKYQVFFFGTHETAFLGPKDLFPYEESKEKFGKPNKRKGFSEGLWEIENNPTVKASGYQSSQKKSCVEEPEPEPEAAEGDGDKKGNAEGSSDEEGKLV
Sequence of GST-HDGF Δ70-237 (P51858 70-237, stated change not applied): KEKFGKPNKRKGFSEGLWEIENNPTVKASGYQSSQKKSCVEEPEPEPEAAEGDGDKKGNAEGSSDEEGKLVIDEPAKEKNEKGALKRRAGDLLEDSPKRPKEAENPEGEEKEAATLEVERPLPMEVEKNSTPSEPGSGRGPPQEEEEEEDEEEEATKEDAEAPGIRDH
Sequence of His-HDGF-GFP (P51858 whole entry): as the sequence (P51858 whole entry) above
Sequence of TNT-HDGF (untagged) (P51858 whole entry): as above

B1: 37 bp minimal probe (dsDNA)
DNA 1: CTTGAACTCCTGACCTCAGATGATCCATGTGCCTCGG
DNA 2: CCGAGGCACATGGATCATCTGAGGTCAGGAGTTCAAG
B1: binds ([1]; label: 5' biotin).

B2: SMYD1 promoter 80 bp probe (dsDNA)
DNA 1: CAGGCTGGTCTTGAACTCCTGACCTCAGATGATCCATGTGCCTCGGCCTCCCAAGGTGGGGATTACAGGCGTGAGCCACC
DNA 2: GGTGGCTCACGCCTGTAATCCCCACCTTGGGAGGCCGAGGCACATGGATCATCTGAGGTCAGGAGTTCAAGACCAGCCTG
B2: binds ([1]; label: 5' biotin (sense strand)); binds [2]; binds [3]. B2: no binding [4]; binds [5]; binds [6]. B2: binds [7].

B3: 80 bp specific competitor (unlabeled) (dsDNA)
DNA 1: B2 DNA 1
DNA 2: B2 DNA 2
B3: binds ([8]; blunt).

B4: non-specific competitor (dsDNA)
DNA 1: TGCTGTTGACAGTGAGCGCGGCCAGCTTATAGTCATATATTAGTGAAGCCACAGATGTAATATATGACTATAAGCTGGCCTTGCCTACTGCCTCGGA
DNA 2: TCCGAGGCAGTAGGCAAGGCCAGCTTATAGTCATATATTACATCTGTGGCTTCACTAATATATGACTATAAGCTGGCCGCGCTCACTGTCAACAGCA
B4: no binding [8].
